Measurements published in article PMC12151214.

B1: GFP-HMGA1 (WT) [human] / mCherry-LacI-CHFR [human] (parent)
chain 1: MSESSSKSSQPLASKQEKDGTEKRGRGRPRKQPPVSPGTALVGSQKEPSEVPTPKRPRGRPKGSKNKGAAKTRKTTTTPGRKPRGRPKKLEKEEEEGISQESSEEEQ
chain 2: MERPEEGKQSPPPQPWGRLLRLGAEEGEPHVLLRKREWTIGRRRGCDLSFPSNKLVSGDHCRIVVDEKSGQVTLEDTSTSGTVINKLKVVKKQTCPLQTGDVIYLVYRKNEPEHNVAYLYESLSEKQGMTQESFEANKENVFHGTKDTSGAGAGRGADPRVPPSSPATQVCFEEPQPSTSTSDLFPTASASSTEPSPAGRERSSSCGSGGGGISPKGSGPSVASDEVSSFASALPDRKTASFSSLEPQDQEDLEPVKKKMRGDGDLDLNGQLLVAQPRRNAQTVHEDVRAAAGKPDKMEETLTCIICQDLLHDCVSLQPCMHTFCAACYSGWMERSSLCPTCRCPVERICKNHILNNLVEAYLIQHPDKSRSEEDVQSMDARNKITQDMLQPKVRRSFSDEEGSSEDLLELSDVDSESSDISQPYVVCRQCPEYRRQAAQPPHCPAPEGEPGAPQALGDAPSTSVSLTTAVQDYVCPLQGSHALCTCCFQPMPDRRAEREQDPRVAPQQCAVCLQPFCHLYWGCTRTGCYGCLAPFCELNLGDKCLDGVLNNNSYESDILKNYLATRGLTWKNMLTESLVALQRGVFLLSDYRVTGDTVLCYCCGLRSFRELTYQYRQNIPASELPVAVTSRPDCYWGRNCRTQVKAHHAMKFNHICEQTRFKN

Variants of: B1
Test: LacI-LacO fluorescence colocalization assay (GFP-HMGA1 foci intensity at LacO array, ImageJ)
Details: with mCherry-LacI-CHFR [human]; U2OS-265 cells cotransfected for 24 h; parent: 1.5; read off a plot

Row | response | Variant
1 | 1 | chain 1 MSESSSKSSQPLASKQEKDGTEKRGRGRPRKQPPVSPGTALVGSQKEPSQVPTPKRPRGRPKGSKNKGAAKTRKTTTTPGRKPRGRPKKLEKEEEEGISQESSEEEQ
